Data from the DeepSol protein solubility set.

Assay: soluble on expression in E. coli; label from the status in PepcDB or PDB records

Sequence | soluble on expression in E. coli
MAHHHHHHMGTLEAQTQGPGSMNVLVIGSGGREHSMLHHIRKSTLLNKLFIAPGREGMSGLADIIDIDINSTIEVIQVCKKEKIELVVIGPETPLMNGLSDALTEEGILVFGPSKAAARLESSKGFTKELCMRYGIPTAKYGYFVDTNSAYKFIDKHKLPLVVKADGLAQGKGTVICHTHEEAYNAVDAMLVHHKFGEAGCAIIIEEFLEGKEISFFTLVDGSNPVILGVAQDYKTIGDNNKGPNTGGMGSYSKPNIITQEMEHIIIQKIIYPTIKAMFNMNIQFRGLLFAGIIIKKNEPKLLEYNVRFGDPETQSILPRLNSDFLKLLSLTAKGKLGNESVELSKKAALCVVVASRGYPGEYKKNSIINGIENIEKLPNVQLLHAGTRREGNNWVSDSGRVINVVAQGENLASAKHQAYAALDLLDWPDGIYRYDIGSCAL | soluble
MVEKPKDIKIAQESFPILVAENIYHCGYHSEKSYGAASYLIQHSQGNILVDSPRFTPPLVKRIEAMGGIKYMYLTHQDDVADHQKFAEHFQCQRILHTDEISAGTRNVEIQLTGLEPFPLQPDVLIIPVPGHTKGHTVLLYKNKFLFTGDHLAWSENRHQLTAFRDVCWYSWAEQIKSMRRLADYSFDWVLPGHGRRFHADVETMRQQMHKCIELMTDERQPLTFNSLEHHHHHH | soluble
MLIGIDVGGTTTDAVLIRNGEVYSTAKVPTEPGDLLKSLLGALDEVSRGVPPEQFERVVFSTTVITNLIAEGKTERVALLLIPGPGVNPASYVFPDSFCIKGAMDYRGREIQPIDEEEVRGTVSRIRDQGFLRVAVVSKFGQRNPSHELRIEEIIREMH | not soluble
MDGHYEVSKSILINRSSPDVFAYVSHIKNQEHYSVWAKRDTNSIKTYRGRDGVVGFTATWKSEMKKVGQGEQEIKKIIPNKRIDLELRFFKPFEATDHVFMETIAQDEEETKVVWGFDGEMAYPVNFFLLFVDMEDVLGGDLETGLVNLKTILESKLEHHHHHH | soluble
RPIGIYEKATPTHCTWLERLNFAKELGFDFVEMSIDERDERLARLDWSKEERLEVVKAIYETGVRIPSICFSGHRRYPLGSKDPVLEEKSLELMKKCIELAQDLGVRTIQLAGYDVYYEEKSPQTRQRFIKNLRKACDWAEEAQVVLAIEIMDDPFISSIEKYLAIEKEIDSPFLFVYPDIGNVSAWHNDIYSEFYLGHHAIAALHLKDTYAVTESSKGQFRDVPFGQGCVKWEEAFDILKETNYNGPFLIEMWSENCETVEETRAAIQEAQAFLYPLIKKAGLM | not soluble
MGHHHHHHSHAAPGAQHFLYEVPPWVMCRFYKVMDALEPADWCQFAALIVRDQTELRLCERSGQRTASVLWPWINRNARVADLVHILTHLQLLRARDIITAWHPPAPLP | not soluble
MSLDLRKSKELTGIEAHINDNKKEESNVEYFEKLRSALLDGVNKGRSLLKHLPVTRIEGQSFRVDIIKFEDGVRVVKQEYKPIPLLKKKFYVGIRELNDGTYDVSIATKAGELLVKDEESLVIREILSTEGIKKMKLSSWDNPEEALNDLMNALQEASNASAGPFGLIINPKRYAKLLKIYEKSGKMLVEVLKEIFRGGIIVTLNIDENKVIIFANTPAVLDVVVGQDVTLQELGPEGDDVAFLVSEAIGIRIKNPEAIVVLEEGHHHHHH | soluble
MGSDKIHHHHHHMTVAKGSIHGIIGENGAGKSTLMSILYGFYQADSGEIKIGGQSTVIKDSQAAISSGIGMVHQHFMLVENFTVLENVMLGAEGGALLAKGTAAARASLKQLETDYGLDVDPDAVVEELPVGRQQRVEILKALYRGADILILDEPTGVLTPAEADHLFKILRVLRDQGKTVILITHKLREIMAITDTVSVMRRGEIVATRKTVETSVEELAELMVGRRVLLRVDKQPAQPRDVLLSVRNLTVKDSRGVIMVDDVSFDVREGEIVGIAGVAGNGQSELLEAITGIRKPMSGEILIAGKLVTGYDPARLRDLGLAHIPEDRHHMGLVLPFEESQNAILGYHRDERYGKGMFLDPKAIRAAAEVEIAKYDIRPPNPRLKTANFSGGNQQKIVVAREIERDPNVLIIGQPTRGVDIGAIEFIHRRIVETRDKGKALLLVSVELDEIRSLSDRILVMFAGKVVGEKTADADEQTLGLMMAGIAA | not soluble
MVMNQKNLFTRSALAAAIALISSNVSAAGFQLNEYSAAALGRAFSGEGAVADNASVGSRNPAAMTLFDRPSFSGGVIYIDPSVDITGTSPSGKSTDASNIAPSAWVPNLHFIMPLDEQWAIGASATSNYGLATEFNDDYVAGMLGGQTDLKTANLNLSAAYRLNDNFSFGLGFDAVYADAKIVRHLGEAGGGLLPANTEAARLEGTKWGYGWNTGILYEIDKENRYSFTYRSEVNIDFDGDYSNQLPVIFGGLGGKTVPGSLTLNLPAVWEVSGYNKVAPQWAIHYSMAYTTWSSFKELKATASNGDVLFDKHEGFRDAYRIALGTTYYYDDNWTFRTGIAFDDSPIPAGNRSISIPDQDRFWLSAGTTYAFNKNASVDVGIAYMKGQNVSITEKTPAPSNTTYEFNSKGSAMLYGVNFNYTF | not soluble
MQDLICYKKMPQWNSQTLPAAFQEKHNTQEGTWAKLTVLKGEMTFSMLTEDGDTLETFHFSEQNQPPFVEPQAWHRIVSFSDDLECQLSFFCSAEDFYHKKYGLTQTHSEVINAVQHIKPGKTLDLGCGGGRNSLYLNLRGFDVTACDKHEQSIDSLNNIIQSEALENIRAGVYNINLAEIKEQYDFILSTVVLMFLERDRIPHIISNMQGSTVDGGYNLIIAAMSTEDCPCPMPFSFTFKEDELKNYYADWEILKYNEDMGELHKTDAQGNRIKLRFATLLARKPLEHHHHHH | soluble
MANFIIELSADESFNIVINDLKPIETYRVEMFLSDYYCINAPMRLAHDVLWKSTATFVSDTNGIINISQTPSCSGSYEGISTMGLFFNAKPLTNKRKKLPNSISKIPLLDHFFVGIKIMQGNTVIAERTFTRHYMSSQISHQDIYGKHFQGRLFYDKKAIKTPSIDYCER | not soluble
MQFGRHISGQFNVELESIRSQVLTMGGLVEQQLTLAMQALHEDDEKLARRVIADDHKVNAMEVSIDEACTRIIAKRQPTAKDLRLIMAIIKTITDLERIGDSATKMAYIAIERPPAKQHQFQVSLEPLCRQAIAMLHQVLDAFARMDVEAAAEIYKQDDRLDKEYEAVVRQLMTYMMEDPKNIPHILQVIWSARAIERVGDRCQNICEYIIYFVKGKDVRHLGDQGIDDVLKKPSL | not soluble
MDKQKVALVLSMGGARGIAHIGVIEELLRHNFEITSIAGSSMGAMVGAMYASGKLEECKEWLYSWDKRKMWELADLTLSRDGLVKGDRFIKELKQIIPVMNIEDLPIPYVAMATDIVCDQEVRFDSGNLYDAIRATISIPMLFRPLRKDGMVLIDGGILNPLP | not soluble
MTKFESSVKVIPYSQERVYEKLADLSNLEAIKDRLPEDKVKNMSFDTDTLSFNVDPVGQLTLRIIEREPSKCIKFETTNSPLPFNMWIQLVAVSEEECKLKVTIGLEINPFMKAMVQKPLNEGLEKMADMLSMIQYLEHHHHHH | soluble
MGSDKIHHHHHHQAEPAPLASAGPAANDPLEGFNRASFKLGMGLDRALLAPITHGYMAVTPRVVRDRVSLVIYNMGEPNTVMNQVLQGKPRQAVRSSTRFVVNSTVGVAGLFDVAAKMGLPPRGADFGQTFGRWGAGPGAYIYVPLMGPLNVRDGVGRALDIVTDPVSLFVGGLDTDFGRARTAITVVDLRATTDSAYEALKDASDPYVTTRSAYAQYREAFVREATGESEALPDFDAPPSEPNTSSATPNP | not soluble
MIDLAPLVRRLAGTPLAEWANGLQAQLDTKMSKGHGDLQRWQSALDALPALQPEKVDLTDSFTLETECDGETRTVLRKALLGLSPWRKGPFNVFGVHIDTEWRSDWKWSRVSPHLDLKGKRVLDVGCGNGYYQWRMLGAGADSVIGVDPNWLFFCQFQAMQRYLPDLPAWHLPFALEDLPANLEGFDTVFSMGVLYHRKSPIDHLLALKDCLVKGGELVMETLVIPGDVHQVLVPEDRYAQMRNVWFLPSVPALELWMRRAGFTDVRCVDVSHTTVEEQRSTEWMRFQSLGDYLDPNDHSKTVEGLPAPMRAVIVGRKP | not soluble
MTLRCSDVNVEPLPGTAKTGSGFVLLEHAGSWSRDVLDGGTFDPELTDQLKRHLKASGMGLQLIRKPGREGRNVEKHNLFLVFAEASIIEHLVVDAPADVLDLDLSGPGKNNAQRMDDPMLLICTHSKRDVCCAIKGRPLAAAVEPQFGPLHVWEASHTKGHRFAPSMLLMPWNYSYGLLDEAETVQLFQGALDNKLFLPGNRGRGTLDARGQVAEIAVAEAFGEAVAPASLQVEFEDDSVLVTHPDGRTWVVELERIEVDGVVSSCGDQPKTGKAWVARQVTELIG | not soluble
MSLYSGYGYFYRGKFMKPFESHNKQLKILRRRGMEVPSSAKRDLENENYYNIINGYKDLFLELDVNGNFLVPDKYKQGTHFKEVFSLYKLDRKFRNVLLEYLLVFETHIKSRISYYFSEKYREPHSYLYFKNYSSDTSKTDSIVKMVATFSSVMSNRKNKPLKHYINTHNGVPLWILVNYLTLGNVSKMYSNLDDDLRLEVAKDYKRKLERDYKTRVQITPSDVDSILQQAHMFRNVCAHEERLYDYKIDRAKSRANIFANYNKIYDKEYVPTMNGSYVFDLLISLCLFLNKHDYIKLVKNMDKLISNYSHSFYTITIDDLYTKMNFPDQTKILDMLEGHHHHHH | soluble
MMNQLRVTRKEPVKIRIQRKTSQNHAKGIEEMEMAVAVGVKMGQDAVEGNWKRKIIPKKTAIREILKSDEEITVRHLKIGLKSRRLPSCLIRKEPKDNNVSYEETGEGEYFEEENRKNSNNANSSNSRNTGRGNKGGKERESLNDNESSNEETEGRRSVKKTNTLNEDNNGNSIRKESNLSNDEETDEVVDTHRINTEDDEEDEEKPPTEKGTPKRKDRKSDSRSTSKGFGSGGRGRAEYTEDGDDDESNRRSVNFEKDGNGRMVKTETERSSTHAQDYDKKGSKKKKHRVSENGSEEEEVSTSFSSSSSKSSSSSSLSRRTTWDGNNNNTNRRRRNRFD | not soluble
MSIIFNQRIEIIRAGEKRSVYSSDVMEDWDNPVVLPVEVPVSIQPVSSTESDATANRSYVTSRFRLFSPPGIDIPQLKAKDRVRIGLLVLDVVGDPARWPHPLKPATVHHVEADLEVHRG | not soluble
MSLTLKLFELVGADAGRPFSPFVWRTRMALAHKGLTAETIPWRFTDKAAIAPYGSEKVPVLLDGDKVVADSWAIANYLEDAYPDRPSLFGGDGGRAMARMLNWWGDLAIIGGIFPMIVADIAQRLDPEDAAYFRQSREARLKTTLEEAAASRDRAVQGFRKSLDPLRLTLKTQAFIGGAAPNYADYIVFGGFQWARVVSDFSLLQSDDPVYAWRERLLDAFGGLARATPGYPVEGHHHHHH | soluble
SSRSGTDPQQRQQASEADAAAATFRANDHQHIRYNPLQDEWVLVSAHRMKRPWQGQVEPQLLKTVPRHDPLNPLCPGAIRANGEVNPQYDSTFLFDNDFPALQPDAPSPGPSDHPLFQAKSARGVCKVMCFHPWSDVTLPLMSVPEIRAVVDAWASVTEELGAQYPWVQIFENKGAMMGCSNPHPHCQVWASSFLPDIAQREERSQQAYKSQHGEPLLMEYSRQELLRKERLVLTSEHWLVLVPFWATWPYQTLLLPRRHVRRLPELTPAERDDLASIMKKLLTKYDNLFETSFPYSMGWHGAPTGSEAGANWDHWQLHAHYYPPLLRSATVRKFMVGYEMLAQAQRDLTPEQAAERLRALPEVHYHLGQKDRETATIA | not soluble
MPADTRPAAIVLMGPTASGKSQLAIDIAKRWGGEVISVDSVLVYRGLDIGTAKPNAAMRASVPHHLIDICEPWETYSAADFAHDARAAIDMIVRRGALPILTGGTGLYFRALLAGLSDMPPAHPEIRAMIAAEAKRDSWAALHTRLAEVDAITAARIHATDPQRIQRALEVYLVSGQSMSDWQNQPPKQRLPLRVLKLVLAPTHRKVLHFRIAQRFKAMLDNGLLAEVNALRTHPSIHAMARPLDLPAMRAVGYRQCWEHLDGMYTAEMLYQRSVAATRQLAKRQLTWLRGELDALWFDPEHDQSRIEKVMEAFLNRLEHHHHHH | not soluble
